Measurements published in patent US10251942B2, “Immunity-inducing agent” (TORAY INDUSTRIES, INC., priority 2009, dated 2019).
Where a SMILES comes first, the peptide text is derived from it.

How the values were obtained:
[1] = test system: malignant brain tumor cell line T98G; assay: Chromium 51 release cytotoxicity of peptide-stimulated CD8-positive T cells; assay type: cell-based, human; conditions: 10^5 T cells and 10^3 T98G cells, 4 hours
Procedure: In a 50-ml centrifuge tube, 10^5 cells of a malignant brain tumor cell line T98G, whose expression of PDS5A had been confirmed (Stein G H et al., J. Cell Physiol., 99: 43-54 (1979), purchased from ATCC), were collected, and 100 μCi of chromium 51 was added to the tube, followed by incubation at 37° C. for 2 hours. […] Thereafter, the amount of chromium 51 released from damaged tumor cells into the culture supernatant was measured, and thereby the cytotoxic activity of the CD8-positive T cells stimulated with each of the polypeptides shown in SEQ ID NOs:27 to 35 was calculated.
The cytotoxic activity was determined by, as described above, mixing 10^5 CD8-positive T cells stimulated and induced with each of the peptides of the present invention and 10^3 cells of a malignant brain tumor cell line T98G to which chromium 51 was incorporated; culturing the resultant for 4 hours; measuring the amount of chromium 51 released into the culture medium after the culturing; and calculating the cytotoxic activity of the CD8-positive T cells against T98G according to the following equation*. cytotoxic activity (%)=(Amount of chromium 51 released from T98G when CD8-positive T cells were added)/(Amount of chromium 51 released from the target cells to which 1N hydrochloric acid was added)×100. *Equation: […]

[2] = test system: epidermal squamous cell carcinoma; assay: Anti-tumor effect of canine recombinant PDS5A protein in patient dog, epidermal squamous cell carcinoma; assay type: in vivo; conditions: 500 μg protein with Freund's incomplete adjuvant, subcutaneous near tumor, 4 times at 1-week interval; tumor about 280 mm^3 at administration
Procedure: (§1) With 500 μg (2.5 ml) of the canine recombinant PDS5A protein purified as described in Example 5 below, the same amount of Freund's incomplete adjuvant (manufactured by Wako Pure Chemical Industries, Ltd.) was mixed to prepare a therapeutic agent for cancer, and this therapeutic agent was subcutaneously administered in the vicinity of the tumor in 1 individual each of patient dogs suffering from perianal adenocarcinoma and epidermal squamous cell carcinoma a total of 4 times at 1-week interval.

mammary gland tumor = assay: Anti-tumor effect of recombinant PDS5A protein in tumor-bearing dog, mammary gland tumor; assay type: in vivo; conditions: 500 μg protein with same amount of Freund's incomplete adjuvant, regional lymph node near tumor, 3 times at 1-week intervals; tumor about 500 mm^3 (dog-derived) or 1000 mm^3 (human-derived) at administration
Procedure: The anti-tumor effect of the recombinant protein described in Example 5 below in 3 individuals of tumor-bearing patient dogs (3 individuals having a mammary gland tumor) having a tumor mass in the epidermis was evaluated. Before administration, the antibody titer against the recombinant protein in the serum of each patient dog was measured by the method described in Example 5 (3), and, as a result, an antibody titer higher than that of a healthy dog was detected.
With 500 μg (2.5 ml) each of the recombinant PDS5A proteins (dog-derived and human-derived) purified as described above, the same amount of Freund's incomplete adjuvant (manufactured by Wako Pure Chemical Industries, Ltd.) was mixed to prepare 2 kinds of therapeutic agents for cancer, each of which was administered to a regional lymph node in the vicinity of the tumor a total of 3 times at 1-week intervals. […] On the other hand, in the negative control group to which PBS(−) was administered, the tumor volume, which had been about 800 mm^3 at the time of administration of PBS, became 1625 mm^3 on Day 21 after the administration.

perianal adenocarcinoma = assay: Anti-tumor effect of canine recombinant PDS5A protein in patient dog, perianal adenocarcinoma; assay type: in vivo; conditions: 500 μg protein with Freund's incomplete adjuvant, subcutaneous near tumor, 4 times at 1-week interval; tumor about 370 mm^3 at administration
Procedure: as §1

Molecule	cytotoxic activity of stimulated CD8-positive T cells against T98G [1]	day on which complete regression of the tumor was achieved [2]	day on which complete regression of the tumor was achieved (mammary gland tumor)	day on which complete regression of the tumor was achieved (perianal adenocarcinoma)
CC(C)C[C@H](NC(=O)[C@H](CCCCN)NC(=O)[C@H](Cc1ccc(O)cc1)NC(=O)[C@H](C)NC(=O)[C@H](CO)NC(=O)[C@H](CS)NC(=O)[C@H](CS)NC(=O)[C@H](CCC(N)=O)NC(=O)[C@@H](N)CC(C)C)C(=O)O [SEQ ID NO:36] (H-LQCCSAYKL-OH)	no cytotoxic activity	–	–	–
canine recombinant PDS5A protein: full-length canine PDS5A (SEQ ID NO:2) expressed in E. coli; given mixed with Freund's incomplete adjuvant (protein, listed as Canis familiaris, mixed with Freund's incomplete adjuvant) MDFTAQPKPATALCGVVSADGKIAYPPGVKEITDKITTDEMIKRLKMVVKTFMDMDQDSEDEKQQYLPLALHLASEFFLRNPNKDVRLLVACCLADIFRIYAPEAPYTSHDKLKDIFLFITRQLKGLEDTKSPQFNRYFYLLENLAWVKSYNICFELEDCNEIFIQLFRTLFSVINNSHNKKVQMHMLDLMSSIIMEGDGVTQELLDSILINLIPAHKNLNKQSFDLAKVLLKRTVQTIEACIANFFNQVLVLGRSSVSDLSEHVFDLIQELFAIDPHLLLSVMPQLEFKLKSNDGEERLAVVRLLAKLFGSKDSDLATQNRPLWQCFLGRFNDIHVPVRLESVKFASHCLMNHPDLAKDLTEYLKVRSHDPEEAIRHDVIVTIITAAKRDLALVNDQLLGFVRERTLDKRWRVRKEAMMGLAQLYKKYCLHGEAGKEAAEKVSWIKDKLLHIYYQNSIDDKLLVEKIFAQYLVPHNLETEERMKCLYYLYASLDPNAVKALNEMWKCQNMLRSHVRELLDLHKQPTSEANCSAMFGKLMTIAKNLPDPGKAQDFVKKFNQVLGDDEKLRSQLELLISPTCSCKQADVCVREIARKLANPKQPTNPFLEMVKFLLERIAPVHIDSEAISALVKLMNKSIEGTADDEEEGVSPDTAIRSGLELLKVLSFTHPTSFHSAETYESLLQCLRMEDDKVAEAAIQIFRNTGHKIETDLPQIRSTLIPILHQKAKRGTPHQAKQAVHCIHAIFTNKEVQLAQIFEPLSRSLNADVPEQLITPLVSLGHISMLAPDQFASPMKSVVANFIVKDLLMNDRSTGEKNGKLWSPDEEVSPEVLAKVQAIKLLVRWLLGMKNNQSKSANSTLRLLSAMLVSEGDLTEQKRISKSDMSRLRLAAGSAIMKLAQEPCYHEIITPEQFQLCALVINDECYQVRQIFAQKLHKALVKLLLPLEYMAIFALCAKDPVKERRAHARQCLLKNISIRREYIKQNPMATEKLLSLLPEYVVPYMIHLLAHDPDFTRSQDVDQLRDIKECLWFMLEVLMTKNENNSHAFMKKMAENIKLTKDAQSPDESKMNEKLYTVCDVALCVINSKSALCNADSPKDPVLPMKFFTQPEKDFCNDKSYISEETRVLLLTGKPKPAGVLGAVNKPLSATGRKPYVRSTGAETGSNINVNSELNPSTGNRSREQSSEAVETGVSENEENPVRIISVTPVKNIDPVKNKEINSDQTTQGNISSDRGKKRSVAAAGTENIQQKTDEKVDESGPPAPSKPRRGRRPKSESQGNATKNDDINKPLGKGRKRAAVSQESPGGLEAGNAKAPKLQDVAKKAVPAERQIDLQR	–	42 days	13 days	35 days
